According to paper PMC6197793, “Optimized Enzymatic Synthesis of Feruloyl Derivatives Catalyzed by Three Novel Feruloyl Esterases from Talaromyces wortmannii in Detergentless Microemulsions” (Computational and Structural Biotechnology Journal, 2018):

Assays:
Assay in all cases: transesterification rate, HPLC, Michaelis-Menten fit
Assay type in all cases: biochemical, Talaromyces wortmannii
[1] = substrate: C=COC(=O)/C=C/c1ccc(O)c(OC)c1; conditions: acyl donor, co-substrate 200 mM prenol, system I microemulsion (5.0% buffer), MOPS-NaOH pH 6.0, 40 °C, 8 h
Excerpt: transesterification rate, HPLC, Michaelis-Menten fit on Fae68

[2] = substrate: C=COC(=O)/C=C/c1ccc(O)c(OC)c1; conditions: acyl donor, co-substrate 200 mM prenol, detergentless microemulsion n-hexane: t-butanol: 100 mM MOPS-NaOH pH 6.0 (system II, 3.2% buffer), 40 °C, 8 h
Excerpt: transesterification rate, HPLC, Michaelis-Menten fit on Fae125

[3] = substrate: C=COC(=O)/C=C/c1ccc(O)c(OC)c1; conditions: acyl donor, co-substrate 200 mM prenol, system II microemulsion, MOPS-NaOH pH 6.0, 40 °C, 8 h
Excerpt: transesterification rate, HPLC, Michaelis-Menten fit on Fae7262

B1: Fae68 (Talaromyces wortmannii) (protein)
chain: LPETHLQARGQSTSASSQSFQAKCEAFSSKINGQKKNAFQNDITLHSVTYIPSGGNISMATIPSVCANNAISTASPVEFCRVSLNVTTSSTSQIYMEAWLPGNYTGRFLSTGNGGLGGCIQYSDMLYATQFGFATVGTNNGHFGDTGKYFLGNTEILEDFAYRALHTGVVIGKELAKLFYTQISSGYNKSYYLGCSTGGRQGWKSLEKFPDDFDGVVAGSPAFNFINLSNWGARFLGITGDNTSDTFVTATQWGNLIHDEIIRQCDALDGAVDGIIEDPDLCHPVFETLICNSSSTASSSCLTGVQANTVNQVFTPLIGEDGKWLYPRMQPGSEVLAAYIYYSGQPFQYSTDWFRYVVYNNSAWDPTTWTLADAAAADRQDPFDISTWDSSLVSGFQKKGGKVLHYHGMEDPIITSDSSKAWYKYLADSTNTSPSELDEFYRFFAISGMGHCSPGSGASYIGQGVGTYVPGSEQHPEDNVLMAMVQWVEEGIAPEFVRGAKVASNGSVEYTRKHCKFPKRNVYVGPGNYTDENAWECV
notes: expressed in low-background C1 (Myceliophthora thermophila) strain; EC 3.1.1.73
Protein B1 has a Km [1] of 16.3 ± 3.7 mM.

B2: Fae125 (Talaromyces wortmannii) (protein)
chain: QQSLWGQCGGTGWTGPTQCVSGACCQVQNPYYSQCIQGNCSPASSTSSTKTTATSVSTTTSARPSGTSLSSGCGKTLSLHSGTYTTTVSGQQRQYTLTLPQNYSPNKAYQLIFGYHWLSGTMQDVVSGSYYGIQPLAGDNAIFVAPQGLNNGWGNTNGDDITFTDQMLSTLENALCIDQTQIYSMGWSYGGAMSYALACARPNVFRAVAVMSGANLSGCSPGTQPVAYYAQHGVSDSVLPFSLGEGIRDTFVKDNHCTPTNPPAPAAGSGTHIKTEYSGCDSGHPVWWVAFDGPHEPLATDAGTSSSWTPGQIWSFFSLFH
notes: expressed in low-background C1 (Myceliophthora thermophila) strain; CBM1 predicted at residues 4-30; EC 3.1.1.73
Protein B2 has a Km [2] of 21.2 ± 7.4 mM.

B3: Fae7262 (Talaromyces wortmannii) (protein)
chain: ASLTQVNNFGDNPGSLQMYIYVPNTLASKPAVIVAMHPCGGSATEYYGMYDYHSPADQYGYILIYPSATRDYNCFDAYSSSSLTHNGGSDSLSIVNMVKYVISTYGADSSKVYMTGSSSGAIMTNVLAGAYPDVFAAGSAFSGMPYACLYGAGAADPIMSNQTCSQGQIQHTGQQWAAYVHNGYPGYTGRYPRLQMWHGTADNVISYADLGQEISQWTTVMGLSFTGNQTNTPLSGYTKMVYGDGSQFQAYSAAGVGHFVPTDVSVVLDWFGITSGTTTTTTSKTTSATTSTTSSAPSSTGGCTAAHWAQCGGIGYTGCTACVSPYTCQKSNDYYSQCL
notes: as for B1
B3 showed a Km [3] of 26.2 ± 2.9 mM.
